In the nanobody polyreactivity screen of Harvey et al. (2022):

Assay: yeast display, Sf9 membrane polyspecificity reagent, FACS + sequencing; frameworks hold sequencing errors
Procedure, shortened: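 Polyreactivity labels are assigned by the sorting gate from which each nanobody was recovered. The gates were low and high (top ~1%), set on anti-HA fluorescence for expression and streptavidin fluorescence for reagent binding. Before sorting, galactose-induced (36–48 hours) yeast display cells were stained for 1 hour at 4 °C with 10% biotinylated, detergent-solubilized Sf9 membrane reagent.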

Row | Sequence | polyreactivity (PSR sort gate)
1 | QVQLVESGVGLVQAGGSLRLSCAASGRTFFNYVMGWYRPAPGKERELVAAISRSGGSTYYADSVKGRFTLSRDNAKNTVYLQMNSLKPEDTAVYYCAADKYYEYYWGQATQVTVSS | high polyreactivity
2 | QVQLVESGGGLVQAGGSLRLSCAASGNILFSYAMGWYRQAPRKERELVAAISSSGGSTYYADSVKGRFTISRDNAKNNVYLQMNSLKPEDTAVYYCARYSFYKYDYWGQGTQVTVSS | high polyreactivity
3 | QVQLVESGGGLVQAGGSLRLNCAASGSIFGQYTMGWYRQAPGKERELVADITSGGSTYYADSVKGRFTISRDNAKNTVYLQMNSLKPEDPAVYYCAAVDWKAHWEMGYWGQGTQVTVSS | low polyreactivity
4 | QVQLVESGGGLVQAGGSLRLSCAASGSTFTLYVMGWYRQAPGKERELVAAISSNGGRTYYADSVKGRFTISRDNAKNTVYLQMNSLKPEDTAVYYCAAGKIGRYHYDYWGQGTQVTVSS | high polyreactivity
5 | QVQLVESGGGLVQAGGSLRLSCAASGFTFALYAMGWYRQAPGKERELVASISWSGGSTYYADSVKGRFTISRDNAKNTVYLQMNSLKPEDTAVYYCAACGRYYGGAYTRYYYWGQGTQVTVSS | high polyreactivity
6 | QVQLVESGGGLVQAGGSLRLSCAASGLTFGRNAMGWYRQAPCKERDLVAAITFNGGSTYYADSVKGRFTISRDNEKNTVYIQMNSLKPEDTAVYYCAARLWRRTRFDYWGQGTQVTVSS | high polyreactivity
7 | QVQLVESGGGLVQAGGSLRLSCAASGRTFRIYAVGWYRQAPGKERELVATIDSGGSTNYADSVKGRFTISRDNAKNTVYLQMNSLKPVDTAVYYCNAEDKPWYYLAGQAEYDSWGQGTQVTVSS | low polyreactivity
8 | QVQLVESGGGLVHAGGSLRLSCSASRFIFDKNSMGWYIQAPGKERELVAAISYGDGRTYYADSVKGRFTISRDNAKNTVYLHMNSLKPEDTEVYYCNTDAKRYIRIYWGQGTQVTVSS | high polyreactivity
9 | QVQLVESGGGLFKAGGSLRLSCAASGRIFEKYAMGWYRQAPGKERELVAAISYSGGSTYYADSVKGRFTISRDNAKNTVYFQMNCLKPEDTAVYYCARYSRTQAYDYWGQGTQVTVSS | high polyreactivity
10 | QVQLVESGGGIVQAGGSLRLSCAASGRTFYGNAMGWYIQEPGKERELVAGISQNGGSTYYADSVKGRFTSSRDTAKNTVYLQMNRLKPEDSAVYYCAADSYYFTGYWAHPYDYWGEGTQVTVSS | high polyreactivity
11 | QVQLVETGGVLVQAGGSLRLSCAASGRIFFYYVMGWYRQAPGKERELVAGITRGGITNYADSVKGRLTISRDNAKNTVYLQMNSLKPEDTAVYYCKARAPSYYRYRASAAYDYWGLGTQVTVSS | high polyreactivity
12 | QVHLVESGGGLVQAGGSLRLSCAASGSIFYYNTMGWYRQAPGKERELVAGISWGGGRTYYADSVKGRFTISRDNAKNTVYLQMNSLKPEDTAVYYCNARHRRLPSNGGYDYWGKGTQVTVSS | high polyreactivity
13 | QVQLVESGGGLVQAGGSLRLSCAASGNTFSDYAMGWYRQAPGKERELVAAISSSGVRTYYADSVKGRYTISRDNAKNTVYLQINSLKPEDTAVSYCNAVLNQLSYIYPAVGFWGQGTLVTVSS | high polyreactivity
14 | QVQLVESGGGLVQAGGSLRLSCAASGRNFNVKAMGWYIQAPGKESELVAGITRGGITTYADSVKGRFTISRDNAKNSVYLQMYSLKPVDTAVYYCAAVGWGSRYDTWYYLYDYWGQGSQVTVSS | high polyreactivity
15 | QVQLVDSGGGLVQAGGSLRLTCGSSGSIFYYYVMGLYIQAHGKERELVAAISSGGGTNYSDSVKGRFTISRYNAKNTVYLQMNSLKPEDTAVYYCAKASAYGLANDYDYCGQGTQVTVSS | low polyreactivity
16 | QLQLVESGGGLVQAGGSLRLSCAASGSILYIKTMGWYRQAPGKERELVAAITYSGGSTYYADAVKGRFTISRDNAKNTVYLQMTSLKPEDTAVYYCAADGYYGGFNYWGQGTQVTVSS | low polyreactivity
17 | QLQLVESGGGLVQAGGSLRLSCAASGSIYWRNAMGWYRQAPGKERELVAAITSGGSTYYADSVKGRFTISRDNAKNTVYLQMNSLKPEDTAVYYCAAGYSYRYGYWGQGTQVTVSS | low polyreactivity
18 | QVHLVESGGGLVQAGGSLRLSSAASGFIFGKNDMGWYRQAPGKERELVAAITIGGSTNYADSVKGRFTISRDNAKNTVYLQLNSLKPEDTAVYYCAADSSSLYNYWGQGTQVTVSS | low polyreactivity
19 | QVQLVESGGGLVQAGGSLRLSCAASGSTFVIYGMGWYRQAPGKERELVADITWIGGSTYYADSVKGRFTISRDNAKNTVYLQMNSLKPEDTAVYYCAADAAYLYLYNWYDTEDDYWGEGTQVTVSS | low polyreactivity
20 | QDQLVESWGCLVQAGGSLRLSCAASRRIFGGHTMGWYRQAPGKERELVAAITSGRSTTYADSVKGRFTISRDNAKNSVYFLMNSLKPEDTAVDYCAARYVYPNQWTPYIRPYDYWGQGTQVTVSS | low polyreactivity
21 | QVQLVESGGGLVQAGGSLRLSCAASGGIFYHNAMGWYRQAPGKERELVAAISGRGGRTYYADSVKGRFTISRDNAKNTVYLPMNSLKPEDTAVYYCNAVVYSPYRYEYWGQGTQVTVSS | low polyreactivity
22 | QVQLEESGGGLVQAGGSLRLSCAASGSNAMGWYRQAPGKERELVAVITSRGGSTYYADSVKGRFTISRDNAKNTVYLQMNSLKPEDTAVYYCAKAWYVRGTWSVHVRYGYWGQGTQVTVSS | high polyreactivity
